# Literature values as cited in PMC10188253 (Molecular pharmaceutics, 2022).
# Read-outs that look alike come from different tables or passages of the source.
# Test system: B16/F10 melanoma
# Details: ref [25]
substance,measurement,setting,value
^64Cu-CB-TE1A1P-PEG4-LLP2A,B16/F10 melanoma uptake,2 h post-injection,15.1 ± 1.0 % ID/g
same,"VLA-4-specific uptake in normal lung, bone and spleen",2 h post-injection,4.6–18.1 % ID/g
same,B16/F10 melanoma uptake,4 h post-injection,16.9 ± 2.2 % ID/g
